In this assay the target is TNRC6A (human (endogenous in HeLa), UniProt Q8NDV7 1-1962). Put plainly: affinity purification with mass spectrometry.

The stoichiometry N is the number of molecules, sites or subunits per partner or assembly.

Sequence of TNRC6A (Q8NDV7 whole entry): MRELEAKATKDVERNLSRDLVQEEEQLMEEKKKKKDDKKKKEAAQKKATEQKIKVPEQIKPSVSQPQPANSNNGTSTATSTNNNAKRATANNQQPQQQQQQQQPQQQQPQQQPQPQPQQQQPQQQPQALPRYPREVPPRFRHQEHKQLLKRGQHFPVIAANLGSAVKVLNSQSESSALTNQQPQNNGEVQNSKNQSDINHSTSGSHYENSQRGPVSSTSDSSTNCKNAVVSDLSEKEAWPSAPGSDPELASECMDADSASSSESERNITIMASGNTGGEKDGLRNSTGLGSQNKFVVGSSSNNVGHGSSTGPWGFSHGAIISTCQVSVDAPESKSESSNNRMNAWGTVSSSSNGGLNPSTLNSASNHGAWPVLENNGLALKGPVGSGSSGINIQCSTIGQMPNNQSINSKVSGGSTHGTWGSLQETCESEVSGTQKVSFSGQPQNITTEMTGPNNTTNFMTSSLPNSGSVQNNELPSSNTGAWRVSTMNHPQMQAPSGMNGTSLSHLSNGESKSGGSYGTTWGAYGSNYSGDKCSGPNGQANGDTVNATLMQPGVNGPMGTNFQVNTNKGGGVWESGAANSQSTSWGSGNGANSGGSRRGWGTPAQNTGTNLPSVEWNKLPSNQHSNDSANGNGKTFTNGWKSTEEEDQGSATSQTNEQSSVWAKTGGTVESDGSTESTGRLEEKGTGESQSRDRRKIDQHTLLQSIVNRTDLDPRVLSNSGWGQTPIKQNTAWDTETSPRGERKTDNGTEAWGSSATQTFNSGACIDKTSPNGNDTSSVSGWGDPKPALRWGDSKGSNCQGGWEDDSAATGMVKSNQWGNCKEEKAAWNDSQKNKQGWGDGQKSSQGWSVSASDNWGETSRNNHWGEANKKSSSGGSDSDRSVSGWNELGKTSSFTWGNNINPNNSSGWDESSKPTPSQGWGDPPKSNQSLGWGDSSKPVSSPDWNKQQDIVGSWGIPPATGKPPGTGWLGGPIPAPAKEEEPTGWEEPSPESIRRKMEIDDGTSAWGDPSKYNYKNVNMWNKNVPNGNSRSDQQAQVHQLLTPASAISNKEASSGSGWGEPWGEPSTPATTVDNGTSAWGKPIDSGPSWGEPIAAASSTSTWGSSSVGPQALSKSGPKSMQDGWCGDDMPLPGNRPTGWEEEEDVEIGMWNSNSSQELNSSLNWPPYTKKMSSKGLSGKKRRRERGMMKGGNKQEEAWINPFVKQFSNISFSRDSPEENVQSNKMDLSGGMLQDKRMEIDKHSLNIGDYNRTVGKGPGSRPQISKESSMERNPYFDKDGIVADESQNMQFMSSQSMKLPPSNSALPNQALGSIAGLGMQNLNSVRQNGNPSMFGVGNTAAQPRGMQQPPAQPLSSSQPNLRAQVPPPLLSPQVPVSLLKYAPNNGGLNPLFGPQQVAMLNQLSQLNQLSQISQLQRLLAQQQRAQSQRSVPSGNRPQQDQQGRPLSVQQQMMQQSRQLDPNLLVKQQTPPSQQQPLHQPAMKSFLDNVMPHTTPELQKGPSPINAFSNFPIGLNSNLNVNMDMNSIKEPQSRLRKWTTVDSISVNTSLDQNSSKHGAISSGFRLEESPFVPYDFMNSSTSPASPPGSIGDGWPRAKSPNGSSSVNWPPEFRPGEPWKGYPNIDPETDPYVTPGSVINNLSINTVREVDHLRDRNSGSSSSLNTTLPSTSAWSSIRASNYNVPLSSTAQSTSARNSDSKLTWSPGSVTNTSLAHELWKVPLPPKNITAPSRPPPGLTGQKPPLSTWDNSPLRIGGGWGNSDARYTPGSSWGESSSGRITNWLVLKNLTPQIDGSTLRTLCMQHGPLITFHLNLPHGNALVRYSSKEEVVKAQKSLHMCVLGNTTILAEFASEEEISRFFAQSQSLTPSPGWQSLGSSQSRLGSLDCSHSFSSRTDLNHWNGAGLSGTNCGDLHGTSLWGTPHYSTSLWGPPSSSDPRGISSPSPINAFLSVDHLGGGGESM

B1: TP53BP1 (natural protein, human (endogenous in HeLa), UniProt Q12888 1-1972, looked up)
chain: MDPTGSQLDSDFSQQDTPCLIIEDSQPESQVLEDDSGSHFSMLSRHLPNLQTHKENPVLDVVSNPEQTAGEERGDGNSGFNEHLKENKVADPVDSSNLDTCGSISQVIEQLPQPNRTSSVLGMSVESAPAVEEEKGEELEQKEKEKEEDTSGNTTHSLGAEDTASSQLGFGVLELSQSQDVEENTVPYEVDKEQLQSVTTNSGYTRLSDVDANTAIKHEEQSNEDIPIAEQSSKDIPVTAQPSKDVHVVKEQNPPPARSEDMPFSPKASVAAMEAKEQLSAQELMESGLQIQKSPEPEVLSTQEDLFDQSNKTVSSDGCSTPSREEGGCSLASTPATTLHLLQLSGQRSLVQDSLSTNSSDLVAPSPDAFRSTPFIVPSSPTEQEGRQDKPMDTSVLSEEGGEPFQKKLQSGEPVELENPPLLPESTVSPQASTPISQSTPVFPPGSLPIPSQPQFSHDIFIPSPSLEEQSNDGKKDGDMHSSSLTVECSKTSEIEPKNSPEDLGLSLTGDSCKLMLSTSEYSQSPKMESLSSHRIDEDGENTQIEDTEPMSPVLNSKFVPAENDSILMNPAQDGEVQLSQNDDKTKGDDTDTRDDISILATGCKGREETVAEDVCIDLTCDSGSQAVPSPATRSEALSSVLDQEEAMEIKEHHPEEGSSGSEVEEIPETPCESQGEELKEENMESVPLHLSLTETQSQGLCLQKEMPKKECSEAMEVETSVISIDSPQKLAILDQELEHKEQEAWEEATSEDSSVVIVDVKEPSPRVDVSCEPLEGVEKCSDSQSWEDIAPEIEPCAENRLDTKEEKSVEYEGDLKSGTAETEPVEQDSSQPSLPLVRADDPLRLDQELQQPQTQEKTSNSLTEDSKMANAKQLSSDAEAQKLGKPSAHASQSFCESSSETPFHFTLPKEGDIIPPLTGATPPLIGHLKLEPKRHSTPIGISNYPESTIATSDVMSESMVETHDPILGSGKGDSGAAPDVDDKLCLRMKLVSPETEASEESLQFNLEKPATGERKNGSTAVAESVASPQKTMSVLSCICEARQENEARSEDPPTTPIRGNLLHFPSSQGEEEKEKLEGDHTIRQSQQPMKPISPVKDPVSPASQKMVIQGPSSPQGEAMVTDVLEDQKEGRSTNKENPSKALIERPSQNNIGIQTMECSLRVPETVSAATQTIKNVCEQGTSTVDQNFGKQDATVQTERGSGEKPVSAPGDDTESLHSQGEEEFDMPQPPHGHVLHRHMRTIREVRTLVTRVITDVYYVDGTEVERKVTEETEEPIVECQECETEVSPSQTGGSSGDLGDISSFSSKASSLHRTSSGTSLSAMHSSGSSGKGAGPLRGKTSGTEPADFALPSSRGGPGKLSPRKGVSQTGTPVCEEDGDAGLGIRQGGKAPVTPRGRGRRGRPPSRTTGTRETAVPGPLGIEDISPNLSPDDKSFSRVVPRVPDSTRRTDVGAGALRRSDSPEIPFQAAAGPSDGLDASSPGNSFVGLRVVAKWSSNGYFYSGKITRDVGAGKYKLLFDDGYECDVLGKDILLCDPIPLDTEVTALSEDEYFSAGVVKGHRKESGELYYSIEKEGQRKWYKRMAVILSLEQGNRLREQYGLGPYEAVTPLTKAADISLDNLVEGKRKRRSNVSSPATPTASSSSSTTPTRKITESPRASMGVLSGKRKLITSEEERSPAKRGRKSATVKPGAVGAGEFVSPCESGDNTGEPSALEEQRGPLPLNKTLFLGYAFLLTMATTSDKLASRSKLPDGPTGSSEEEEEFLEIPPFNKQYTESQLRAGAGYILEDFNEAQCNTAYQCLLIADQHCRTRKYFLCLASGIPCVSHVWVHDSCHANQLQNYRNYLLPAGYSLEEQRILDWQPRENPFQNLKVLLVSDQQQNFLELWSEILMTGGAASVKQHHSSAHNKDIALGVFDVVVTDPSCPASVLKCAEALQLPVVSQEWVIQCLIVGERIGFKQHPKYKHDYVSH
In the case of B1, the “stoichiometry N” value was ~1.52 per TNRC6A (=1).

B2: AGO2 (natural protein)
chain: not shown
As for B2, the “stoichiometry N” value is 2.2 per TNRC6A (=1).

Values taken from paper PMC5588873 (Cell reports, 2017).
